Data taken from the DeepSol protein solubility set.

assay: soluble on expression in E. coli; label from the status in PepcDB or PDB records

**Q.** With “MGSDKIHHHHHHMIQPRIRQNPFETYEEVAEGFEDLLAPLELFFDREYQGHLDLGTHGTVYSKGTRDAEAFLRPLWGLGPYVTQNESEYLNDFLTGIIEGTDPESSSYWGKTKDYDQLIVEMAALSTFLLLNKEKTWDQLTKEQQNNLHSWLIQANENIIPPNNWHFFRVLLNLAMKHCEMPYSKEQIAVDLAVIDRFYVGNGWYYDGVETQVDYYVSFAIHYYSLLYCRFAPEDTARVAIMKERATLFAQEFKYWFTQPGEAIPFGRSLTYRFAQVSFFSALVFADVEALPWGEIKGLISRHLHQWMNKDIFTTDGLLSVGYDYQNMVFAEGYNGPGSPYWAFKTFILLAVPKDHPYWQAETQPISFPEKHLPSPESRNYYQVNDAGTHGLMFPAGQFINYQAHAHDKYSKFVYSSHFGFSTIKSDYWYYEGAYDNCLALAEDDHYFRTKGLDDQYEILDDRIIHQWHPWSDVAIKTTIVPLEGQHLRIHEIETQRALVAYEGGFSIPLFDEKVTCVSDQMAEVKNAKGVSKVENINGFSEAAIIRTEPNTNLLYPLTELPYLKANLSKGKHLLISLVTGVLPNEQIEPVKVRLKENQLLVEEKVVILGN” as the sequence, how does the “soluble on expression in E. coli” value read?
**A.** The value was “not soluble”.

**Q.** For “MERNMKNKNKMLDLMLEAVNNIKDAMPKMQIGAPVRQNIDAGERPCLQGYYTAAELKPVLDRPPQDSNAPGASGKAFKTTNLSVEEQKEKERGEAKHCFNAFASDRISLHRDLGPDTRPPEYVEEYLLFILYHQALQGREG”, which “soluble on expression in E. coli” value is on record?
**A.** Its value is “not soluble”.

**Q.** With “MARIRVVQGDITEFQGDAIVNAANNYLKLGAGVAGAILRKGGPSIQEECDRIGKIRVGEAAVTGAGNLPVRYVIHAAVLGDEPASLETVRKATKSALEKAVELGLKTVAFPLLGTGVGGLPVEAVARVMLEEIKKAPDTLEVTLYGYREEDAEAIRRAL” as the sequence, how does the “soluble on expression in E. coli” value read?
**A.** Its value is “soluble”.

**Q.** For “MGSDKIHHHHHHMIEVEIDKDSGFCFGVVTAIESAERELGNTDTLYCLGDIVHNSLEVERLEHMGLHTIDHEGLSRLRDRKVLLRAHGEPPSTYALAKRNNITIIDATCPVVLRLQRKIHKCYQETRANNTQLVIYGKKGHAEVNGLVGQTEGTAIVIEKIEDLDRLDFTRAISLFSQTTKSLDGFKAVVAEIKQRMAEGVEFNYYDTICRQVANRLPNIKAFASSHDWVYFVAGRKSSNGKMLFEECRKANPNTLFISEVSEITEPLPEGVRRVGVCGATSTPKWLMEEVAVRIKELNASE”, which “soluble on expression in E. coli” value is on record?
**A.** The value was “not soluble”.

**Q.** For “MGSDKIHHHHHHMKELENYYGRLFTKYQLTAKEREIAEKVPSITKKNNCFRCGTTFKEENKLPNDAYYCRACLLLGRVRSDEKLYHFPQKDFPITKCLKWKGQLTDWQQRISDGLVANVENNRATLVHAVTGAGKTEMIYHTVASVIDKGGAVCLASPRIDVCIELYKRLQNDFSVPISLLHGESEPYFRTPLVVATTHQLLKFYQAFDLVLIDEVDAFPYADNPMLYQAADNAVKEAGVQVFLTATSTDELDKKVRTGKLSRLSLPRRFHGNPLVVPQKVWFSKFDDTLKKNRLVPKLKKAIEEQRKSGFPLLIFVPEISKGQEFTKIMKKTFPEETIGFVSSQTENRLEIVEGFRKREITVLISTTILERGVTFPCVDVFVVQANHYLYTASSLVQIAGRVGRSIERPTGLLQFYHEGSTGAIEKAIAEIKQMNKEAGYV”, which “soluble on expression in E. coli” value is on record?
**A.** The value was “not soluble”.

**Q.** With “MQKQNIVILGSTGSIGKSTLSVIENNPQKYHAFALVGGKNVEAMFEQCIKFRPHFAALDDVNAAKILREKLIAHHIPTEVLAGRRAICELAAHPDADQIMASIVGAAGLLPTLSAVKAGKRVLLANKESLVTCGQLFIDAVKNYGSKLLPVDSEHNAIFQSLPPEAQEKIGFCPLSELGVSKIILTGSGGPFRYTPLEQFTNITPEQAVAHPNWSMGKKISVDSATMMNKGLEYIEARWLFNASAEEMEVIIHPQSIIHSMVRYVDGSVITQMGNPDMRTPIAETMAYPHRTFAGVEPLDFFKIKELTFIEPDFNRYPNLKLAIDAFAAGQYATTAMNAANEIAVQAFLDRQIGFMDIAKINSKTIERISPYTIQNIDDVLEIDAQAREIAKTLLRE” as the sequence, how does the “soluble on expression in E. coli” value read?
**A.** The value was “not soluble”.

**Q.** For “MGSDKIHHHHHHMSDFFIETTKADKVLPTNSRPKFFAFGIPSYTNLGDQAVSLAQRKYIENEFPEYQYIEILEDDNDEGIEAVKKIITSQDIVSFVGGGNMGSLYTNHEAARRKVFSTFVNNLTISFPQSIHFEDTPSGLKEQKLSQEAYGKNRHLFLIARDAQSYHRMQTTFDNQVLFTPDMVLYFKASHYDFKRSGALFVLRHDGEKVVGDSLIDSMKKMLDNNRPLKRTDTVLDTVKRITPINREKLFKEELELFAHQEIVITDRWHAMVFSVLTGTPCLLFGNSYGKGKHAYFDWLEHINWIAYTDEEDLDRIDQQIQRLIKTKEHAYDIRPDFKQLHDLIKLHSKK”, which “soluble on expression in E. coli” value is on record?
**A.** The value was “not soluble”.
